Reference: the Human Domainome abundance scans (Beltran et al. 2025)

B1: POU domain, class 3, transcription factor 3, residues 320 to 388; numbered along this chain, P20264 (parent)
chain: DDLEQFAKQFKQRRIKLGFTQADVGLALGTLYGNVFSQTTICRFEALQLSFKNMCKLKPLLNKWLEEAD

Variants of: B1
Assay: abundance fitness (aPCA) (normalised: wild type 0, dead -1); higher = more abundant; growth selection in yeast, the domain comes from the species named
Conditions: Homo sapiens

Abundance fitness: each site, then its substitutions
Y32: A -0.412, E -0.335, V -0.557, L 0.017, P -0.685, H -0.099, M -0.647, G -0.225, W -0.276, Q -0.102, R -0.44, S 0.108, D -0.352, T -0.526, K -0.559
L26: Q 0.017, G -0.227, W -0.24, M 0.058, D -0.016, V -0.147, Y 0.035, S 0.071, R 0.128, A 0.005, C -0.045, T -0.515, E 0.133, K -0.076
N34: G 0.074, K 0.081, W -0.84, S 0.109, F -0.569, R -0.051, H -0.094, E 0.136, L -0.468, A -0.036, M -0.22, C 0.307, Y -0.295, T -0.098, I -0.235, V -0.21, D -0.085, Q -0.172
A27: H -0.022, S -0.239, M -0.427, R 0.031, V -0.509, I -0.711, K 0.021, D -0.613, P -0.8, L -0.456, Y -0.502, E -0.375, Q 0.228, G -0.262, C 0.232, W -0.101
G33: L -0.922, F -0.766, S -0.885, M -0.792, D -0.545, V -1.09, H -0.753, I -0.7, Y -0.523, Q -0.263, A -0.382, P -0.204, W -0.722
G29: I -0.464, T -0.004, N 0.041, D -0.736, Y -0.108, K -0.01, S 0.092, V -0.468, L -0.929, R 0.02, Q -0.554, A 0.056, P -0.658, W -0.478, H -0.154, M -0.427, C -0.594, E -0.02, F -0.388
V24: S -0.941, P -0.673, W -1.05, N -0.74, R -0.788
V35: D 0.091, N -0.601, M -0.278, P -0.105, G -0.204, H -0.152, I -0.609, C -0.417, A -0.537, F -0.179, L -0.462, Q 0.033, E 0.172
G25: R -0.3, N -0.753, M -0.754, A 0.161, V -0.815, S -0.069, Q -0.682, C 0.103, T -0.36
L31: R 0.031, F -0.023, P -0.551, Y -0.334, G -0.565, K -0.118, I 0.076, V -0.195, M -0.156, S -0.137, D -0.017, H -0.229, W -0.387, C -0.237, A -0.299, Q -0.116
L28: N -0.71, W -0.981, Q -0.747, A -0.639, M -0.594, G -0.943, V -0.703, S -0.94, K -0.682, R -1.02, T -0.8
T30: V -0.034, E -0.177, A 0.063, W -0.421, K 0.336, H -0.232, S 0.01, M -0.077, D -0.062, L -0.325, R -0.08, N -0.348, F -0.514, P -0.115, G -0.013, I -0.446, Y -0.459, Q 0.1
